Test results reported in PMC11964946.

Target: Vicia altissima seed lectin (VICALTA) (Vicia altissima)
Assay: native gel or EMSA; native PAGE on Mini-PROTEAN TGX 4%-20% precast gels (single band at 87 kDa), compared with SDS-PAGE (single band at 38 kDa); purified seed lectin

Substance: Vicia altissima seed lectin (VICALTA) (natural protein)
- stoichiometry N: 2
